Data on one molecule can be found in patent publication US20180244795A1 (DEBIOPHARM INTERNATIONAL S A, published 2018).

For experiment [1], the target named is T1, hCD37-ECD-S2-Fc (amino acids 107 to 109 and 138 to 235 of human CD37 fused to murine IgG2a Fc-domain) (human).
T1 construct: Produced in HEK-293T cells; It lacks the S1 segment (amino acids 110-137) of the CD37 large extracellular domain; also called truncated hCD37-ECD-S2-Fc protein
T1 chain: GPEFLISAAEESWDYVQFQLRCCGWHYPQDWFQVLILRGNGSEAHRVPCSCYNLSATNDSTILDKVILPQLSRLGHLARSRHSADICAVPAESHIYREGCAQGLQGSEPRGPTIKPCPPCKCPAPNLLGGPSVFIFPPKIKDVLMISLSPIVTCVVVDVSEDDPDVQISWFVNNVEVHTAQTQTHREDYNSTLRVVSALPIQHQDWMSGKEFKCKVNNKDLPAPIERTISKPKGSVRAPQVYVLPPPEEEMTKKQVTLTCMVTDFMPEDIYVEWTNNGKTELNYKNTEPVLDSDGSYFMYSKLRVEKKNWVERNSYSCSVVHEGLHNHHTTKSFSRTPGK
Nature of the experiment: ELISA, native hCD37-ECD-S2-Fc coated on the plate, purified antibody titrated. As to the method: (§1) Antibody from 1B11-2 was purified using standard protein-A chromatography. An anti-CD37 antibody sold by Leica Biosystems (product code NCL-CD37) was used for comparison. The binding of the anti-CD37 antibodies was examined by ELISA with recombinant CD37 proteins used as the antigen. Each recombinant protein was immobilized at approximately 25-100 ng/well on microtiter plates in Sodium bicarbonate coating buffer (Sigma-Aldrich) using either native or denatured conditions as described above. Plates were washed once with PBS supplemented with 0.05% Tween-20 and blocked with PBS supplemented with 1% bovine serum albumin (BSA). Plates were washed three times with PBS supplemented with 0.05% Tween-20 and purified antibodies were added to the plates. Plates were incubated for one hour at room temperature, washed three times as above, and incubated with HRP-labeled goat anti-murine secondary antibody (Jackson ImmunoResearch, diluted at 1:5,000) for one hour at room temperature. The plates were washed three times as above, and bound HRP-conjugated antibody was detected by adding the HRP-substrate TMB (Bio-FX). Plates were incubated for approximately 10 minutes, and then color development was stopped with stop solution (Bio-FX). Absorbance at 450 nm was measured for each plate in a multiplate reader. Representative results are shown in FIG. 2 for binding to native hCD37-Fc-LAGA and hCD37-LEL. […]
A general note: An ELISA detects its analyte on a solid surface through an enzyme-linked reagent.

The target in experiment [2] is T2, hCD37-Fc-LAGA (amino acids 107 to 235 of human CD37 fused to human IgG1 Fc-domain) (human).
T2 construct: Produced in HEK-293T cells
Nature of the experiment: ELISA, native hCD37-Fc-LAGA coated on the plate, purified antibody titrated (left panel). As to the method:
as §1

The target in experiment [3] is T3, hCD37-ECD-Fc (amino acids 107 to 235 of human CD37 fused to murine IgG2a Fc-domain) (human).
T3 construct: Produced in HEK-293T cells
T3 chain: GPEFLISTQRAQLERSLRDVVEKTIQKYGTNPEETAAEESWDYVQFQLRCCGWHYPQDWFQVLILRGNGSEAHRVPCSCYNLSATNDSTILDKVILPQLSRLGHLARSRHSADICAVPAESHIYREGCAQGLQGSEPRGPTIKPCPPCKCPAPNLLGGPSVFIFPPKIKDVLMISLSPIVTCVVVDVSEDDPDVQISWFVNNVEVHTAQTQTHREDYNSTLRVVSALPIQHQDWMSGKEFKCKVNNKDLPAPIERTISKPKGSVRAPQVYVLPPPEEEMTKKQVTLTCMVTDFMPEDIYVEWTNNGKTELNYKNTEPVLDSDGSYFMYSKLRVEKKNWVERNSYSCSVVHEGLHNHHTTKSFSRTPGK
In words: Western blot after denaturing, reducing SDS PAGE (Gel C), primary 1B11-2, secondary anti-mouse F(ab)2-HRP. As for the experimental part:
The ability to recognize different preparations of Fc-fused CD37-ECDs was tested in denaturing SDS PAGE followed by Western blotting for 1B11-2 (left panel), in direct comparison with a commercially available anti-CD37 antibody (Leica; right panel). Fc-fused CD37-ECD preparations were denatured by incubation in Laemmli buffer containing 70mM β-mercapto-ethanol at 100° C. for 10 min, and were separated by SDS polyacrylamide gel electrophoresis, followed by electrophoretic transfer to PVDF membranes. Membranes were blocked with 5% non-fat milk in Tris-buffered saline with 0.1% Tween-20 (TBST) for 1 hour at room temperature. Primary antibodies were applied overnight, followed by detection with secondary anti-mouse F(ab)₂ conjugated to horse radish peroxidase for 1 h at room temperature. Blots were developed using enhanced chemiluminescence detection following standard procedures. While the Leica antibody recognizes all three Fc-CD37 ECD preparations, the 1B11-2 antibody of the invention recognizes only hCD37-ECD-Fc and hCD37-Fc-LAGA, but not hCD37-ECD-S2-Fc. The hCD37-ECD-S2-Fc construct is missing the S1 segment (amino acids 110-137) of the CD37 ECD. Thus, a region of amino acids 110-137 is critical for epitope recognition by 1B11-2, but not by the Leica antibody.
Background: Immunoblotting shows a protein as a band on a membrane.

The target in the next experiment is T4, Human CD37 (human, UniProt P11049 1-281).
T4 construct: Endogenous CD37 in formalin fixed paraffin embedded Daudi, Ramos and Namalwa cell pellets and human tonsil (IHC); also called GP52-40; tetraspanin-26
T4 sequence: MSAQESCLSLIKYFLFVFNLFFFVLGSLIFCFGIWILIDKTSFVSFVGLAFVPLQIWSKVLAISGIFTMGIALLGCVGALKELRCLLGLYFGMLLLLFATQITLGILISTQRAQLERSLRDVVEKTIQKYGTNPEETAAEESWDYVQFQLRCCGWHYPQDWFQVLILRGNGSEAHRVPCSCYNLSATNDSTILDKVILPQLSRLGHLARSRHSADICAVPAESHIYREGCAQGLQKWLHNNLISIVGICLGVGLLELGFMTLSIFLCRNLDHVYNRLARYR
Nature of the experiment: IHC on FFPE CD37-positive samples (human tonsil, Daudi, Ramos, Namalwa cells). As to the method:
Slides were incubated with ImmunoGen, Inc. generated 1B11-2 antibody, Leica/Novocastra NCL-CD37 antibody (clone CT1) or Leica/Novocastra muIgG1 control antibody at varying concentrations for 15 minutes. Bound antibodies were detected by incubation with the Leica Bond Refine detection system. Following the application of the antibodies, slides were incubated with Post Primary Reagent (rabbit anti-mouse IgG) for 8 minutes, Polymer (goat anti-rabbit polymer) for 8 minutes, and DAB (3,3-diaminobenzidine tetrahydrochloride) for 10 minutes. […] Slides were counterstained with hematoxylin for 5 minutes.
Purified antibody from clone 1B11-2 diluted at 8.4 μg/mL, 4.2 μg/mL, and 2.1 μg/mL in Leica Antibody Diluent (Tris-buffered saline, surfactant, and protein stabilizer with 0.35% ProClin™ 950) was used to stain CD37-positive control samples (human normal tonsil, Daudi cells, Ramos cells, and Namalwa cells). The antibody was evaluated for CD37 specificity as measured by acceptable membrane staining and specificity in CD37-positive samples. This clone was also compared with the NCL-CD37 mouse mAb (clone CT1) diluted to 4.2 μg/mL in Leica Antibody Diluent using the same CD37 positive human tissue and cells. […] A suitable staining concentration of 4.2 μg/mL was experimentally determined for 1B11-2.

B1: muCD37-1B11-2 mouse monoclonal anti-human CD37 antibody (antibody, mouse IgG1, kappa, V domains shown)
VH: EVQLLQSGPELVKPGASVKISCKASGYSFTGYFMNWVIQSHGKGLEWIGRINPYNGDTFYNQKFKGKATLTVDKSSTTAHMELLSLTSEDSAVYYCGSRGIVASSRFFDVWGAGTSVIVSS
VL: SIVMTQTPKFLLVSAGDRVTITCKASQGVSNDVDWYQQKPGQSPKLLIYYASNRYTGVPDRFTGSGYGTDFTFSISTVQAEDLAVYFCHQDYTSPTFGGGTKLEIKR
notes: Murine IgG1/kappa from hybridoma; also called antibody 1B11-2; CD37 1B11-2 Mouse mAb
On to B1, for which the binding result in experiment [1] was “no binding (tested: 1e-7 M)”; in experiment [3], “binds”; with Human CD37, “binds”. Also, the EC50 (read off the curve) (in general, the concentration needed to bring the measured effect to its halfway point) in experiment [2] was around 100 pM.
